Reference: the nanobody polyreactivity screen of Harvey et al. (2022)

Experiment: yeast display, Sf9 membrane polyspecificity reagent, FACS + sequencing; frameworks hold sequencing errors
Summary of the method: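 Galactose induction of a Saccharomyces cerevisiae BJ5465 synthetic nanobody display library ran 36–48 hours. The cells were then stained for 1 hour at 4 °C with 10% biotinylated, detergent-solubilized Sf9 membrane reagent, pulled down on streptavidin microbeads and FACS-sorted into low and high (top ~1%) gates on expression and reagent-binding fluorescence. Labels for polyreactivity follow the gate of origin.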

Sequence | polyreactivity (PSR sort gate)
QVQLVESGGGLVQAGGSLRLSCAASGSTFYTNAKGWYRQAPGKEREFVAAISWAGSSTYADSVKGRFTISRDNAKTTVYLQMHSLKPEDTAVYYCNADVLDGGYDYWGQGTQVTVSS | low polyreactivity
QVQLVESGGGLVQAGGSLRLSCAASGSTFYTNAMGWYRQAPGKEREFVAAISWSGSSTYADSVKGRFTISRDNAKNTVYLQMNSLKPEDTAVYYCSADWFKLRTDYYWGQGTQVTVSS | low polyreactivity
QVQLVESGGGLVQAGGSLRLSCAASGSTFYTYAMGWSRPAPGKERELVAAINWIGDSTYYADSVKGRFTISRDNAKNTVYLQMNSLKPEDTAVYYCAADFTLGSRTEGLHMDYWGQGTQVTVSS | high polyreactivity
QVQLVESGGGLVQAGGSLRLSCAASGSTFYTYTAMGWYRQAPGKERELVAAITWRGGSTYYADSVKGRFTISRDNAKNTVYLHMNRLKPEDTSGYYCAADCVMTWWAYDYWGQGTQVTVSS | high polyreactivity
QVQLVESGGGLVQAGGSLRLSCAASGSTFYTYTMGWYRPGPGKEMELVAAISSSGGDTYYADSVKGRFTISRDNAKNTVYLQMNSLKPEDTAVYYCAALGAFPSLEFDYWGQGTQVTVSS | low polyreactivity
QVQLVESGGGLVQAGGSLRLSCAASGSTFYVNAMGSYRQAPGQERELVAAIRSSAGNTTYADSVKGRFTISRDNAKNTVYLQMNSLKPEETAVYYCAADSRPYLRDYWGQGTQVTVSS | low polyreactivity
QVQLVESGGGLVQAGGSLRLSCAASGSTFYVNAMGWYRQAPGKDRELVAVISTGGSTYYADSVKGRFTISRDNAKNTVYLQMNSLKPEDTAVYYCAKRDLPDRSGTPNVIPFDYWGQGTQVTVSS | low polyreactivity
QVQLVESGGGLVQAGGSLRLSCAASGSTFYVNAMGWYRQAPGKERELVAAISRRGGSTYYADSVKGRFTISRDNAKNTVYLQMNSLKPEDTAVYYCNVVPVWRPYSLINWQKHFGYWGQGTQVTVSS | high polyreactivity
QVQLVESGGGLVQAGGSLRLSCAASGSTFYVNAMGWYRQAPGKERELVAGISYNAGSTYYADSVKGRFTISRDNAKNTVSLQMNSLKPEDTAVYYCAAYPYWRWYGYLGYDYWGQGTQVTVSS | low polyreactivity
QVQLVESGGGLVQAGGSLRLSCAASGSTFYVNAMGWYRQTPGKERELVATIPSGSITDYADSVKGRFTISRDNAKNTVYLQMNSLKPEDTAVYYCAKTYVQEHGVDYWGQGTQVTVSS | low polyreactivity
QVQLVESGGGLVQAGGSLRLSCAASGSTFYVNVMGWYRQAPGKERELVADISNDGSTHYADSVKGRFTISRDTAKNTVYLQMNSLKPEDTAVYYCNAEEIDEASYAYPPLEYDYWGQGTQVTVSS | low polyreactivity
QVQLVESGGGLVQAGGSLRLSCAASGSTFYVYAMGWYRQAPGKERELVAAITVRGGSTYYADSVKGRFTISRDNAKNTVYLQMNSLKPEDTAVYYCAVDVSKPYYEMDYWGQGTQVTVSS | high polyreactivity
QVQLVESGGGLVQAGGSLRLSCAASGSTFYVYDMGWYRQAPGKEREFVAVISWNGGSTYYADSVKGRFTISRDNAKNTVYLQMNSLKPEDTAVYYCATRRSSGRVTYDYWGQGTQVTVSS | low polyreactivity
QVQLVESGGGLVQAGGSLRLSCAASGSTFYVYPMGWYRQAPGKERELVAAITRGGTTYYADSVKGRFTISRDNAKNTVYLQMNSLKPEDTAVYYCAKYLTGAADLVPEYDYWGQGTQVTVSS | low polyreactivity
QVQLVESGGGLVQAGGSLRLSCAASGSTFYWYALGWYRQAPGKERELVASITWIGGSNTYYADSVKGRFTISRDNAKNTVYLQMNSLKPEDTAVYYCAADPGVYGQYLYSPWGYDYWGQGTQVTVSS | high polyreactivity
QVQLVESGGGLVQAGGSLRLSCAASGSTFYWYAMGWYRQAPGKEREFVAAISLGSGSTYYADSVKGRFTISRDNAKNTVYLQMNSLKPEDTAVYYCARRYPYPAYEYGYWGQGTQVTVSS | high polyreactivity
QVQLVESGGGLVQAGGSLRLSCAASGSTFYWYAMGWYRQATGKERELVAVITVRGGSTYYADSVKGRFTISRDNAKYTVYLQMNSLKPEDTAVYYCAAEQTSSLYKYWYDYWGQGTQVTVSS | low polyreactivity
QVQLVESGGGLVQAGGSLRLSCAASGSTFYYNAMGWYRQAPGKERELVAAINRGGITYYADSVKGRFTISRDNAKNTVYLQMNSLKPEDTAVYYCAASRYPRSYVSYYYWGQGTQVTVSS | high polyreactivity
QVQLVESGGGLVQAGGSLRLSCAASGSTFYYNAMGWYRQAPGKERELVAAISGSGGSTYYADSVKGRFTISRDNAKNTVYLQMNSLKPEDTAVDYCAALYGPGREYDYWGQGTQVTVSS | low polyreactivity
QVQLVESGGGLVQAGGSLRLSCAASGSTFYYNAMGWYRQAPGKERELVAAITSSGGRTYYADSVKGRFTISRDNAKNTVYLQMNSLKPEDTAVYYCAKREASSRWPYDYWGQGTQVTVSS | low polyreactivity
QVQLVESGGGLVQAGGSLRLSCAASGSTFYYNAMGWYRQAPGKERELVAAITSSGGRTYYADSVKGRFTISRDNAMNTVYLQMNSLKPEDTAFYYCAKREASSRWPYDYWGQGTQVTVSS | low polyreactivity
QVQLVESGGGLVQAGGSLRLSCAASGSTFYYNAMGWYRQAPGKERELVAVITLNGGRTSYADSVKGRFTISRDNAKITVYLQMNSLKPEDTAVYYCAADRYRGYGYWGQGTQVTVSS | low polyreactivity

Sequence | polyreactivity (PSR sort gate)
QVQLVESGGGLVQAGGSLRLSCAASGSTFYYNAMGWYRQAPGQERELVAAITSGGGTNYADSVKGRFTISRDNAKNTVYLQLNSLKPEDTAVYYCAADIYPLAIGAFRDDYWGQRTQVTVSS | low polyreactivity
QVQLVESGGGLVQAGGSLRLSCAASGSTFYYYAIGWYRQAPGKERELVAALSKSGGSTYYADSVKGRFTISRDNAKNTVYLQMNSLNTEDTAVYYCSARWYRFQGYGRPYRGIGGDYWGQGTQVTVSS | high polyreactivity
QVQLVESGGGLVQAGGSLRLSCAASGSTFYYYALGWYRQAPGKERELVATISWSGDSTYADSVKGRFTISRDNAKNTVYLQMNSLKPEDTAVYYCATSGDWWGFRYDYWGQGTQVTVSS | low polyreactivity
QVQLVESGGGLVQAGGSLRLSCAASGSTFYYYAMGWYRPAPGKERELVAAISSRGGSTFYADSVKGRFTISRDNAKNTVYLQMNSLKPEDTAVYYCNAYRYDRSQYYPYDYWGQGTQVTVSS | high polyreactivity
QVQLVESGGGLVQAGGSLRLSCAASGSTFYYYAMGWYRQAPGKEREFVAAISWGGGSTRYADSVKGRFTISRDNAKNTVYLQMNSLKPEDTAVYYCAARYPHYDYYYWGQGTQVTVSS | high polyreactivity
QVQLVESGGGLVQAGGSLRLSCAASGSTFYYYAMGWYRQAPGKERELVAAIDTSVDSTYYADSVKGRFTISRDNAKNTVYLQMNSLKPEDTAVYYCNARSRTGYTNRMYYWGQGTQVTVSS | high polyreactivity
QVQLVESGGGLVQAGGSLRLSCAASGSTFYYYAMGWYRQAPGKERELVAAISISDNSTYYADSVKGRFTISRDNAKNTVYLQMNSLKPEDTAVYYCAAYGWYAHDDSTYDYWGQGTQVTVSS | low polyreactivity
QVQLVESGGGLVQAGGSLRLSCAASGSTFYYYAMGWYRQAPGKERELVAAISSGGSTYADSVKGRFTISRDNAKNTVYLQMNSLKPEDTAVYWGQGTQVTVSS | low polyreactivity
QVQLVESGGGLVQAGGSLRLSCAASGSTFYYYAMGWYRQAPGKERELVAAITYRGGSTYYADSVKGLFTISRDNAKNTVYLQMNSLKPEDTAVYYCSKVGYKTSSIRYGYWGQGTQVTVSS | high polyreactivity
QVQLVESGGGLVQAGGSLRLSCAASGSTFYYYAMGWYRQAPGKERELVAVISWGGGSTYYADSVKGRFTISRDNAKNTVYLQMNSLKPEDTAVYYCAAVYDEYQTSHEYDYWGQGTQVTVSS | low polyreactivity
QVQLVESGGGLVQAGGSLRLSCAASGSTFYYYTMGWYRQAPGKERELVAAISSSGGSTYYADSVKGRFTISRDNAKNTVYLQMNSLKPEDTAVYYCNAARKGYRVYTLIDRHKYDYWGQGTQVTVSS | high polyreactivity
QVQLVESGGGLVQAGGSLRLSCAASGSTFYYYTMGWYRQAPGKERELVASISGNVGSTSYADSVKGRFTISRDNAKNTVYLQMNSLKPEDTAVYYCNTDWGYYHSPDSDYWGQGTQVTVSS | low polyreactivity
QVQLVESGGGLVQAGGSLRLSCAASGSTFYYYVMGWYRQAPGKERELVAAISSGGHTNYADSVKGRFTISRDNAKNTVYLQMNILKPEDTAVYYCAAKPWRGTLLRYGYWGQGTQVTVSS | high polyreactivity
QVQLVESGGGLVQAGGSLRLSCAASGSTGVNTMGWYRQAPGKERQLVAAIRATGGSTYYADSVKGRFTISRENAKNTVYFQMNSLKPEDTAVYYCNAYRRSYRWYGDLGEYWGQGTQVTVSS | high polyreactivity
QVQLVESGGGLVQAGGSLRLSCAASGSTIAYYAMGWDRQAPGKERELVAVINGITGSTYYADSVKGRFTISRDNEKNTVYLQMNSLKPEDTAVYYCNADYADVTDEGDYWGQGTQVTVSS | low polyreactivity
QVQLVESGGGLVQAGGSLRLSCAASGSTIDIYAMGWYRQAPGKERELVAAISNSGDTYYADSVKGRFTISRDNAKNTVYLQMNSLKPEDTAVYYCAAPAAGDEYDYWGQGTQVTVSS | high polyreactivity
QVQLVESGGGLVQAGGSLRLSCAASGSTIDTNAMGWYRQAPGTDRELVAAITSGGNTYADSVKGRFTISRDNAKNTVYLQMNSLKPEDTAVYYCAAEDVYTGWYDYCGQGTQVTVSS | low polyreactivity
QVQLVESGGGLVQAGGSLRLSCAASGSTIDWYGMGWYRQAPGKERELVAAINFSDGSTYYADSVKGRFTISRDNAKNTVYLQMNSLKPEDTAVYYCAAFTPSYGGRDYWGQGTQVTVSS | low polyreactivity
QVQLVESGGGLVQAGGSLRLSCAASGSTIDYYTMGWYRQEPGKERELVAAISWSGGNTYYADSVKGRFTISRDNAKNTVYLQMNSLKPEDTAVYYCNRVNAYWLRYDYWGQGTQVSVSS | high polyreactivity
QVQLVESGGGLVQAGGSLRLSCAASGSTIEFNAMGWYRPAPGKERELVAAISGSGASTYYADSVKGRFTISRDNAKNTVYLQMNSLTPEVTAVYYCNADSLYYDYQTVDVQALDYWGQATQVTVSS | low polyreactivity
QVQLVESGGGLVQAGGSLRLSCAASGSTIEPNAMGWYRPAPGKERELVAAINYSGGRTYYADSVKGRFTISRDNAKNTVYLQMNSLKPEDTAVYYCAATSIGRYKSRLDYWGQGTQVTVSS | high polyreactivity
